Experiments:
[1] = target: T1, human Nectin-4 on cell membrane surface (human, UniProt Q96NY8 32-510); assay: flow cytometry on NCI-N87 cells
T1 construct: whole, on cells; also called A549-Nectin-4; T24-Nectin-4
T1 sequence (looked up): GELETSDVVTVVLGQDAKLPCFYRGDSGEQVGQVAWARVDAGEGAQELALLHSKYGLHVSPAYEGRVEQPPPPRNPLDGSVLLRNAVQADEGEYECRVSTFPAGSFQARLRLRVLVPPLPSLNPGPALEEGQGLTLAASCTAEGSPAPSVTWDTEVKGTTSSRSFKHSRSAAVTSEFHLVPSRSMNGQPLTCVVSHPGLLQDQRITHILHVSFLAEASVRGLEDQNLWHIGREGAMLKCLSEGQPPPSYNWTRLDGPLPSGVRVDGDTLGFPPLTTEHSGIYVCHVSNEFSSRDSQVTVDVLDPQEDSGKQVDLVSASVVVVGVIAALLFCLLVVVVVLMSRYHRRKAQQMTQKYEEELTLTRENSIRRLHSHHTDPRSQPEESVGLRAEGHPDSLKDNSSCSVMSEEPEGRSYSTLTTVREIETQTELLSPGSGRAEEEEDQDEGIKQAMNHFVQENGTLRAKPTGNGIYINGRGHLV

human Nectin-4 protein = target: T2, human Nectin-4 protein (human, UniProt Q96NY8 32-349); assay: ELISA, coated human Nectin-4, anti-human-HRP
T2 construct: Purified protein used for coating in ELISA and as analyte in Octet; also called human Nectin-4 antigen
T2 sequence (looked up): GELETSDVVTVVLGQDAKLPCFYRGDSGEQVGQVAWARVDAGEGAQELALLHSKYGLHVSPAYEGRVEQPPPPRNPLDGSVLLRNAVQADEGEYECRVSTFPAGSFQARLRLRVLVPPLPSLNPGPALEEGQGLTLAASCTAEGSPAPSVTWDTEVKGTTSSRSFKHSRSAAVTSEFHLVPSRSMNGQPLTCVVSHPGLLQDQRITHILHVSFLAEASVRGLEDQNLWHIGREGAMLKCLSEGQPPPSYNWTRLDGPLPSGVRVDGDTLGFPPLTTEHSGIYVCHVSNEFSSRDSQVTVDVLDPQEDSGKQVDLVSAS
Text: The Nectin family includes members of Nectin-1, Nectin-2, Nectin-3 and Nectin-4, and the members share a sequence identity of about 25%, but have similar structure and function. […]

B1: anti-human Nectin-4 humanized monoclonal antibody 56HZ (antibody, human IgG1, kappa, V domains shown)
VH: QVQLQESGPGLVKPSQTLSLTCTVSGYFNSITSDYDWHWIRHHPGKGLEWMGYISFSGRTYYNPSLKSRVTISHDTSKNQFSLKLSSVTAADTAVYYCARGNYDGFDYWGQGTLVTVSS
VL: DIVLTQSPATLSLSPGERATLSCRASQNIGTSIHWYQHKPGQSPRLLIKFASESISGIPARFSGSGSGTDFTLTISSLEPEDFAVYYCQQSKSWPTYTFGGGTKVEIKR
notes: Human IgG1 heavy chain constant region, human kappa light chain constant region; expressed in CHO-E cells
EC50 [1]: 0.0164 µg/mL | EC50 (read off the curve) (human Nectin-4 protein): ~0.006 µg/mL

Reference: patent US20240228612A1 (SICHUAN KELUN BIOTECH BIOPHARMACEUTICAL, published 2024)
